From PMC3995651

Tests used:
Assay in all cases: cross-linking; BS3 (0.5 or 5 mM), 5 µM protein in solution without liposomes, 20 mM Hepes, 150 mM NaCl, pH 7.4; 30 min room temperature, then 2 min 37°C with BS3; SDS-PAGE, Coomassie; step: monomers to dimer
[1] = biological target: BIN1 N-BAR domain (1-254) D151N (human)
[2] = biological target: BIN1 N-BAR domain (1-254) K35N (human)
[3] = biological target: BIN1 N-BAR domain (1-254) R154Q (human)
[4] = biological target: BIN1 N-BAR domain (1-254), wild type (human)

BIN1 N-BAR domain (1-254) D151N (domain or fragment)
stoichiometry N [1]: 2

BIN1 N-BAR domain (1-254) K35N (domain or fragment)
stoichiometry N [2]: 2

BIN1 N-BAR domain (1-254) R154Q (domain or fragment)
stoichiometry N [3]: 2

BIN1 N-BAR domain (1-254), wild type (domain or fragment)
stoichiometry N [4]: 2
